The values that follow come from patent publication US20230303690A1 (published 2023).

This assay has as its target T1, LAG3 Protein, Human, Recombinant (His Tag) (Sino Biological Catalog No. 16498-H08H) (human, UniProt P18627 23-450).
T1 construct: Bought protein; also called hLAG3-His; LAG3-His; not shown: His tag
T1 sequence (looked up): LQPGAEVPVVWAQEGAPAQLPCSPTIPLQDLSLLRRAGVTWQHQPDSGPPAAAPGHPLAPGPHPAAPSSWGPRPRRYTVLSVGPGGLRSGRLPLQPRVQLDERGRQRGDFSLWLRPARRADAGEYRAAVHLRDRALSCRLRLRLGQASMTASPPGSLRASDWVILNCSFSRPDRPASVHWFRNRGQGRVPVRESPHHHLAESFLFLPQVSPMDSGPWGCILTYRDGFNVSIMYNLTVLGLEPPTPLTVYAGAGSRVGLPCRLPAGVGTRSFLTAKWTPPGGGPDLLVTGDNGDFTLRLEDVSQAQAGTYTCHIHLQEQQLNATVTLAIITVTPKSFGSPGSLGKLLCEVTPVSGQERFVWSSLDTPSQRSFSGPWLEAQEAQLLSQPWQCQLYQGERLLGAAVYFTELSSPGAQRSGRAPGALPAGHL
As to the kind of experiment: ELISA, coated hLAG3-His. As to the method:
Plates were coated with 100 µL per well of Coating Solution, and then covered, and incubated overnight (12-18 hours) at 2-8° C. The wells were aspirated and washed 1 time with >200 µL of Wash buffer per well, inverted and tapped on absorbent paper to remove excess liquid. The plates were blocked with 200 µL per well with Blocking buffer (1×PBS+4% milk) for 1 hour at room temperature, aspirated, inverted, and tapped on absorbent paper to remove excess liquid. Standards and sample dilutions were prepared in Blocking buffer. 100 µL of standards (in duplicate) and samples were pipetted into designated wells. After incubation for 1 hour at room temperature with gentle continual shaking (~500 rpm), the wells were aspirate and washed 3 times with >200 µL of Wash buffer per well, inverted and tapped on absorbent paper to remove excess liquid.
The primary antibody solution was diluted with Blocking buffer. See Table 14 for recommended primary antibody dilution. 100 µL of the primary antibody solution was added into each well and incubated for 2 hours at room temperature with gentle continual shaking (~500 rpm). The wells were aspirated and washed 3 times with >200 µL of Wash buffer per well, inverted and tapped on absorbent paper to remove excess liquid. The working solution of secondary antibody was made with Blocking buffer by diluting the secondary antibody by 2,500 times. 100 µL of secondary antibody working solution was added into each well and incubated for 30 minutes at room temperature. The wells were aspirated and washed 5 times with >200 µL of Wash buffer per well, inverted and tapped on absorbent paper to remove excess liquid. 100 µL of TMB substrate solution (Biopanda, TMB-S-004) was added to each well and incubated for 30 minutes at room temperature. 100 µL of Stop solution (Solarbio, C1058) was added to each well. Absorbance at 450 nm was measured within 30 minutes of adding Stop solution. Results were calculated using a log-log or 4-parameter curve fit.

B1: sdAb No. 25 (VHH)
VHH: QLQLVESGGGLVQAGGSLRLSCAASGSIESFSFMGWYRQAPGKQRELVAGFTGAASLSFSTYTDAVKGRFTISRDNAKNTVYLQMNSLKPEDTAVYFCNVDPWSQSWPGRYWGQGTQVTVSS
notes: Fc of the tested form not described; also called sdAb 25; sdAb #25; not shown: Fc part implied by anti-human Fc capture and anti-human IgG Fc detection
For the molecule B1, the EC50 amounted to 3.45 nM, the “OD450 at 0.061 nM” value amounted to 0.037, the “OD450 at 0.1829 nM” value was 0.042 and the “OD450 at 0.5487 nM” value came out at 0.06. Also, the “OD450 at 1.6461 nM” value stood at 0.233, the “OD450 at 4.9383 nM” value turned out to be 0.643, the “OD450 at 14.815 nM” value worked out at 0.85 and the “OD450 at 44.445 nM” value worked out at 0.882. In addition, the “OD450 at 133.335 nM” value is 1.02.

B2: sdAb No. 27 (VHH)
VHH: QVQLVESGGGLVQPGGSLRLSCAASGFTLDYYAIGWFRQAPGKEREGVSCIRSSDGSTYYADSVKGRFTISSDNTKNTVYLQMNSLKPEDTAVYYCATDRYSDCRGPYENWGQGTQVTVSS
notes: Fc of the tested form not described; also called sdAb 27; not shown: Fc part implied by anti-human Fc capture and anti-human IgG Fc detection
With B2, the EC50 amounted to 4.7 nM, the “OD450 at 0.061 nM” value turned out to be 0.037, the “OD450 at 0.1829 nM” value amounted to 0.042 and the “OD450 at 0.5487 nM” value came out at 0.059. Also, the “OD450 at 1.6461 nM” value stood at 0.257, the “OD450 at 4.9383 nM” value is 1.04, the “OD450 at 14.815 nM” value amounted to 1.57 and the “OD450 at 44.445 nM” value stood at 1.77. Also, the “OD450 at 133.335 nM” value came to 1.95.
